The source of these data is patent US20050147555A1.

The target in this assay is KDR (VEGFR-2, Flk-1), full-length receptor on cells (human), P35968. The assay is described as follows: competition with 125I-VEGF on KDR-transfected 293H cells. To be noted: remark: other sources report otherwise.

Positions of bridges follow the written chain, without caps; N, C: chain ends. Groups on a side chain read outwards from the residue. *: point of attachment. Biotin = O=C1N[C@H]2[C@H](CS[C@H]2CCCCC(=O)*)N1; AEEA = NCCOCCOCC(=O)O

KDR (VEGFR-2, Flk-1), full-length receptor on cells (human), P35968, sequence (P35968 20-1356): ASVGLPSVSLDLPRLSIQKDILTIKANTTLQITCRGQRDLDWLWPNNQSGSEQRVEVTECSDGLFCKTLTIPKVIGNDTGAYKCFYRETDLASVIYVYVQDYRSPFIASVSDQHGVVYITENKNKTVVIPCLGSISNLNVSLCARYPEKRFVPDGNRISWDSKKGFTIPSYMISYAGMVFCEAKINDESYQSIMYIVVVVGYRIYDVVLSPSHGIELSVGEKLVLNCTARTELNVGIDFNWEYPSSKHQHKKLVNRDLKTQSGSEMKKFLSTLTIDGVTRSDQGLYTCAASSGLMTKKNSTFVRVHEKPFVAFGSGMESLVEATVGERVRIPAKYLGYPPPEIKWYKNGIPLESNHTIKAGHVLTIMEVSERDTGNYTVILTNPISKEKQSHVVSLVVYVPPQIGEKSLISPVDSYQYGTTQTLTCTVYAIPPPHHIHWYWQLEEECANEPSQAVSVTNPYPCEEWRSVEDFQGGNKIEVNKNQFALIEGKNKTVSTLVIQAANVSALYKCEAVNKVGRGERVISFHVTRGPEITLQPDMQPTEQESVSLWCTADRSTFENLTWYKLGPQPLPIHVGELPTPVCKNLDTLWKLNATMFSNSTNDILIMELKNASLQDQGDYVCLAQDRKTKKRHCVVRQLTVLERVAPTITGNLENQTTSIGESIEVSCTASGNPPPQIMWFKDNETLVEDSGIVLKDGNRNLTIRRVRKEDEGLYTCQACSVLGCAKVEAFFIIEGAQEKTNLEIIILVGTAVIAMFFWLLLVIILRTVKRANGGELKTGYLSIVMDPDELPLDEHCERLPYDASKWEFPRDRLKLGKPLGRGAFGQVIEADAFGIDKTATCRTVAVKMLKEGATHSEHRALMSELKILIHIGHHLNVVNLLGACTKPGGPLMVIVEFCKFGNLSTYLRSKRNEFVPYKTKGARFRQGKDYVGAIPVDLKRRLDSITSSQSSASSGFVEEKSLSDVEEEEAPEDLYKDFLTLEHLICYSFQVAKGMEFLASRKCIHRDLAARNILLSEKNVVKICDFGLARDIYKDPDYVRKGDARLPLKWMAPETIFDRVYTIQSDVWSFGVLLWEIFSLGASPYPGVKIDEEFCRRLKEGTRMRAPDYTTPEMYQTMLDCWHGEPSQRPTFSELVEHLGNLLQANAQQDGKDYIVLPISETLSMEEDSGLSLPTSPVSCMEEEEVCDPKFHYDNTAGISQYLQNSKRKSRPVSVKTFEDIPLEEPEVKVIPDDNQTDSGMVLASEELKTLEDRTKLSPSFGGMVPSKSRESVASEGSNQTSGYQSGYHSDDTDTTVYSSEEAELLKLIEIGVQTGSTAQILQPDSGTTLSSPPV

B1: P5-XB (peptide)
peptide: Ac-AGPKWCEEDWYYCMITGTGGGK([AEEA-AEEA-Biotin])-NH2
modifications: disulfide 6-13
SMILES: CC[C@H](C)[C@H](NC(=O)[C@H](CCSC)NC(=O)[C@@H]1CSSC[C@H](NC(=O)[C@H](Cc2c[nH]c3ccccc23)NC(=O)[C@H](CCCCN)NC(=O)[C@@H]2CCCN2C(=O)CNC(=O)[C@H](C)NC(C)=O)C(=O)N[C@@H](CCC(=O)O)C(=O)N[C@@H](CCC(=O)O)C(=O)N[C@@H](CC(=O)O)C(=O)N[C@@H](Cc2c[nH]c3ccccc23)C(=O)N[C@@H](Cc2ccc(O)cc2)C(=O)N[C@@H](Cc2ccc(O)cc2)C(=O)N1)C(=O)N[C@H](C(=O)NCC(=O)N[C@H](C(=O)NCC(=O)NCC(=O)NCC(=O)N[C@@H](CCCCNC(=O)COCCOCCNC(=O)COCCOCCNC(=O)CCCC[C@@H]1SC[C@@H]2NC(=O)N[C@@H]21)C(N)=O)[C@@H](C)O)[C@@H](C)O
B1 showed a % inhibition of 125I-VEGF binding at 0.3 µM of 24.4% and a % inhibition of 125I-VEGF binding at 30 µM of 48%.
